Experimental data as given in publication PMC11218354.

Columns and labels:
nucleolin [1] = molecular target: nucleolin (UniProt P19338); experiment: SPR; settings: SPR: 1x PBS, nucleolin on CM5 chip, analyte 0.156-10 uM, regeneration 50 mM NaOH, temperature not stated, ELONA: 1x PBS, 1 mM MgCl2, 0.05% Tween 20, 1 uM …
nucleolin [2] = molecular target: nucleolin (UniProt P19338); experiment: ELONA; settings: 1 mM Mg2+; U6 = 5-fluorouridine (5FU replaces T6; printed F); ELONA: 1x PBS, 1 mM MgCl2, 0.05% Tween 20, 1 uM biotin

Chain of nucleolin (P19338 2-710): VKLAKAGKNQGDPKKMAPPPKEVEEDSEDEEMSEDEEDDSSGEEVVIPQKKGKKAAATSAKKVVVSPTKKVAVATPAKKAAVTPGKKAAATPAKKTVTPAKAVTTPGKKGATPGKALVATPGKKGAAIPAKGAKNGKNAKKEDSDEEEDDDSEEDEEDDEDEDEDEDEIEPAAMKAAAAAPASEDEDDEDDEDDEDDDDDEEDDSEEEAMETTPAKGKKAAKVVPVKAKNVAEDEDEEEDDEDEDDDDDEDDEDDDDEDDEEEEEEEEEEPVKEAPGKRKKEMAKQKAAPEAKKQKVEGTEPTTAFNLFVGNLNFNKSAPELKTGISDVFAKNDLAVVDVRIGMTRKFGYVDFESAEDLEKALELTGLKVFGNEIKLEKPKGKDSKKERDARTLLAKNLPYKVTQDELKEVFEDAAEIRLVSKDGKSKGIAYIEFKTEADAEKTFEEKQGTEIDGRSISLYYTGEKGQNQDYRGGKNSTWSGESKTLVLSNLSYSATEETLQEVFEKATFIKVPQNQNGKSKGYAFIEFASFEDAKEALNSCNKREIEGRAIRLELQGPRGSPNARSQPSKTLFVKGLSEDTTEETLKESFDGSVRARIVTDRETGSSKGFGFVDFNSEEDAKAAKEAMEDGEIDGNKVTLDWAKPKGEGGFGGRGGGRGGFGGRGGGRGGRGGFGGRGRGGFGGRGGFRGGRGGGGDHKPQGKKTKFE

GGTGGTGGTGGTTGTGGTGGTGGTGG [AS1411]
Kd (nucleolin [1]): 69.1 nM

GGTGGTGGTGGTTGTGGTGGTGGTGG [ASP (AS1411-paclitaxel, thioether linker)]
Kd (nucleolin [1]; 3'-amino DNA conjugated to paclitaxel through thioether linker): 253 nM

GGTGGUGGTGGTTGTGGTGGTGGTGG [FA (sequence 2, 5FU at site 6 of AS1411)]
Kd (nucleolin [1]; U6 = 5-fluorouridine (5FU replaces T6; printed F)): 24.8 nM

GGTGGUGGTGGTTGTGGTGGTGGTGG [FA, biotinylated (sequence 2)]
binding signal (nucleolin [2]): > 100 % of AS1411

GGTGGUGGTGGTTGTGGTGGTGGTGG [FASP (FA-paclitaxel, thioether linker)]
Kd (nucleolin [1]; U6 = 5-fluorouridine (5FU replaces T6), 3'-amino DNA conjugated to paclitaxel through thioether linker): 61.7 nM
